pIC50: −log10 of the molar value.
Assays:
[1] = biological target: G-CSF receptor on NFS-60 cells (mouse (endogenous in NFS-60)) (UniProt P40223); assay: radioligand binding
[2] = biological target: Tf receptor on Caco-2 cells (human (endogenous in Caco-2)) (UniProt P02786); assay: radioligand binding
Chain of UniProt P02786 (P02786 whole entry): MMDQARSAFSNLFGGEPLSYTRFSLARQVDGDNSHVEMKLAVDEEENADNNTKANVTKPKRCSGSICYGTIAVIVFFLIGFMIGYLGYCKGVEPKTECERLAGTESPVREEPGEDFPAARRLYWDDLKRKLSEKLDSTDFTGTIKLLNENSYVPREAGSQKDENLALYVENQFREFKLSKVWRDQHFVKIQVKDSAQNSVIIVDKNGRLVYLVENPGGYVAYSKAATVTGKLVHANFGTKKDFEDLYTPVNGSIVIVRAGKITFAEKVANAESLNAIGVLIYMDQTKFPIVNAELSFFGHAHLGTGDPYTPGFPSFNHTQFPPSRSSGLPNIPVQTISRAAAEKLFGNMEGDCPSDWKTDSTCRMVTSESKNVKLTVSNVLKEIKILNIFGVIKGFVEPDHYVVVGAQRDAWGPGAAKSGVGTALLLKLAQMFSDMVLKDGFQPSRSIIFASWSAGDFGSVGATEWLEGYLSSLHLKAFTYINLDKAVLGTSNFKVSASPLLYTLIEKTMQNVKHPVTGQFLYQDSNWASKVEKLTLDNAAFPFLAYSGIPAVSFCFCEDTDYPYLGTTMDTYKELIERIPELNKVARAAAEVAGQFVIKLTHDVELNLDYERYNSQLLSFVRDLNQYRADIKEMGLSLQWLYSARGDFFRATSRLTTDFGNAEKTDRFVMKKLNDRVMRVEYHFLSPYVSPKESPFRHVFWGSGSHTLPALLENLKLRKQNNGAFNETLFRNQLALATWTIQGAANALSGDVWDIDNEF

Chain of UniProt P40223 (P40223 26-837): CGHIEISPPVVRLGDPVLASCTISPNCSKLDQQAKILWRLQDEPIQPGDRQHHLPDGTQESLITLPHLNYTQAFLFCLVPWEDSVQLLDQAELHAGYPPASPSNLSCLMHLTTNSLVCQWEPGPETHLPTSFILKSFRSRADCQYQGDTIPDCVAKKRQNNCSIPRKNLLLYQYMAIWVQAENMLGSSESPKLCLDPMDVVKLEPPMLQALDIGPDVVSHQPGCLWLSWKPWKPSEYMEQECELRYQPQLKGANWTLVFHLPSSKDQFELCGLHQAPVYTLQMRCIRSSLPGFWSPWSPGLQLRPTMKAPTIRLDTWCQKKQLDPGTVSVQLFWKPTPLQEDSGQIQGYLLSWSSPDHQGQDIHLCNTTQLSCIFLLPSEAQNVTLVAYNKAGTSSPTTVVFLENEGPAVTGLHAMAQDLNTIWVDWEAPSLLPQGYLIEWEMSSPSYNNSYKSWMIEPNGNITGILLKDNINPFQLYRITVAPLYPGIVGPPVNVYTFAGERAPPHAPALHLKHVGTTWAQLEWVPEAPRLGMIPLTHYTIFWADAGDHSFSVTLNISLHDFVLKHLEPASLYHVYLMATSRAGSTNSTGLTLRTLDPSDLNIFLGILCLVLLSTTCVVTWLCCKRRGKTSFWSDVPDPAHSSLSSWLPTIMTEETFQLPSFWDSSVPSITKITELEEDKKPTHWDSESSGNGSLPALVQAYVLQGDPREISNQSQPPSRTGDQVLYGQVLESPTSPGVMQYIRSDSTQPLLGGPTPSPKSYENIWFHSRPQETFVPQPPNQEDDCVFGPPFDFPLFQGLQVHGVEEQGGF

pIC50 [1]	pIC50 [2]	Substance
7.42	8.12	G-CSF-LE-Tf fusion protein (dipeptide linker)
	7.67	GH-LE-Tf fusion protein (dipeptide linker)
6.95		recombinant human G-CSF, aglycosylated (Neupogen) (from UniProt P09919-2 31-204) (ligand)

Source: article PMC3310397
